Measurements as given in the NTF2 design screens of Basanta et al. (2020).

Assay: protease stability score; higher = more stable; yeast display proteolysis, trypsin and chymotrypsin;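 note: relative to predicted unfolded state with 0 unfolded-like and 1 meaning tenfold more protease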

Row | Sequence | protease stability score
1 | TEEEREFKEFVEHWMRAIETGDEELLYKLLDPNTQLNYNGVNNHGWHVIKHLEELLGIKVREMRIRDFHHIGDKIVLDVEDIIRIDGRTIILRTEILIVKVDGRWHLKSERVK | 0.965
2 | TEEERHIKEMLELFLEFFKTGNEDLFKELADPHVRLHLNINGKKERVHGMDHAVKWLSQLRVHSFHLKDERAVDGVNEVDQESDVEWNGQRFETTVRLHVYIVNGKLHHLSIEIK | 1.19
3 | TEEERIDHEYEERLKHSFETGDEETIKKMIDPNARVEIDGKDHHGREVMAHLISRIDVLHTVDTTDVSIQGDKINLNLRVHGHVNGKHIDRTLHVRIRKINGKWHIEHFKII | 1.04
4 | TEEERIMLEAIDLLIELWRTGDWKLLDEMVDPRVRIEIGEFTHHGREEYLRILLEEVRRADHRRYHIDHLEIINGRVILNGFIDLTFNGVHLRIREHLVAEKVNGRWLLREIRQR | 1.72
5 | TEEERIRRHAVELWVRSMRTGDEETSVDLADPRTKADINGVEIHGMEIVSKFFREMLEQYDVREFHIHSIDVIGDKVVTDMELILRVGDFENRTHIEFIVHKFDGKWRIEEIRLH | 0.934
6 | TEEERLHHELAKLMIHLMHTGDFDKLIKLVDPHAKLDEDVDGREVHVHGMEKWFEYLKEKFERIKNITIHIRDWRVYNGRVEIHVEYDINGKHVDTTIRLDVVNGRVKRIQIEQK | 2.16
7 | TEEERSTRIAWEIWEMVHKTGDERLIRRFADPNVRIQIGEYNHHGREELENHTKRIDHLHVQDSDVKRVHHFDGQVHIDVHEIIHLEFDGVREDIKRRAHFVVVKYDGRWYLHHVKFH | 0.937
8 | TEEESQAREALLIVLELLRTGDWRSMEKYADPHTLQVFNGRHLHGRELFSDFLEEYERKLGVDRIRVHIHHLDVINGQLRVDTTIDYGDKHHRMIIIINKYDGRWELEQLRIT | 0.341
9 | TEEETETRNLLELFIRSLHTGDEDLTKRLLDPNVRLELGEWEAHGRESVSEVLRLLWELLGVKHIEHHVHDMRVFNGRVHADTRVIMVFDGREHRIETELIVVKIDGRWFIKSIHIR | 1.61
10 | TEEETRLREFMDRLLKIITTGDEKRFKDLADPHVRLFIDGVTIHGRDEAHEMWEIFGMKVKSTHVHEIHIQGDKVNIDTRLSGHFNGRDHIWEAHIYVVKIDGRWILEYIEIR | 1.94
11 | TEEHDEAHEVLKIFLEIHETGDEDDMKRLADPHARLNIGDKEYHGWKHFIEWLHKIKNVTSEIHHVHVYNGKVKTEVDLHVNGQDVKIILIMEKINGRWILQSVEVR | 1.29
12 | TEEHEDIMHFILEWTNSLLTGDFKRVKEMADPHVRVLIVIGDKELHLHGREWILKRTHDIVREMRVEIILHHVDSQGNFAHVDSTLRIEVDGVRFERKTRIHMDIVNGKLKSHEHRIE | 1.29
13 | TEEHEEARRAMKIIVDLLDTGDWKTISRYFDPNVRFEVGDKTYHGREEVLNRFIELGHSNIDVKLHHMELYGDKVVIDSRMNVDGRTHEIEWHSRKYNGRWRLHELHVR | 1.12
14 | TEEHEKSEIAVELIIRTLVTGDEELMNKLIDPHVRIEFENRELVGRETYTKIYSRELRELGWEFVTTELRHIETQGEKVELQGDLVINGKRIKVHLYFHKYNGVWFLKRVHYE | 1.19
15 | TEEHELFEKLARLIIKWLHTGDEERINEYADPNYRTHIGDKTVIGREEREKLIRWLLEHMRIDHIELKDIRVINGKVEIDGKIHGQINGQEVTRHSIIYLIFVDGVIKHISIEWR | 1.35
16 | TEEHEVALRFWRMFLEAITTGDEKRIKELLDPHVQIEINGKHLHGMETLIHRINEIRETWKHVEIKTVEFYNGQIHSHFRVHYVFHVNGKEIERDTDVLLILTKVDGRWHIKSIHIH | 2.52
17 | TEEHHFAERVVREWLKLYYTGDEERNETLADPNVKLDVNGRHYHGRESVSEFLREVYEHWRIREFHIHEFDVFNGVSHVDGELILEINGQKHRYRVRIIIVVINGRLKHIELNQV | 1.56
18 | TEEHKFVKDFFIHMIRAWITGDEKELHRLFDPHTKVRIGDYVSHGMERTLEIWHKLWKELGFKHLEVREVRAQGDKSHTDVVYHVDGREKKVHIELEVFNGKATHLELDEK | 0.519

Row | Sequence | protease stability score
19 | TEEHRATHDYVELLIRAARTGDEDIWKTMFDPDDKLVINGRTHHGREEAVRLLREIRIQIDHVDLREVRVYDGVVEIHTHTELRIIQGDKHLEIRTDQEVHILKIDGRWSNSIVIIH | 1.06
20 | TEEHREIKESVEQWHKDLHTGNEEMLVRLMDPRMRLQIGDKTLHGREEATRWAREFHKRYDHIHDFKIKDYDHYGNYIIIIGTLDGIVDGQRVRTDVRLIFVKVNGRWTIESEEHE | 0.346
21 | TEEKEDKDRWYEEVLRAVLTGDFHFLSRLADPDVRVEYGDKEHVGREEVSRFWQEFFERIKNVTIELHDYKVQGDKIHWLINLRFNGREHIVHIELIIIDGRIHEIRVQIR | 2.02
22 | TEEKEEIDHAFELIWKAIDTGDEKFMTEQADPHTLTILVVDGQEIRLHGMEEFVRTFRELGIKHVRLEDIRIQGNKVEIHIRTNFNGRESEMRVHMEKVDGRWVLRSHRVIFK | 1.36
23 | TEEKHELEKLAKIMFEIIETGDEKTWDELLDPNMRSDVNGVENIGREKVDKAILHYIKRIPNVRIQFTDMHIQGDKVIIRTEVHIGDYREELIIEVVVVNGRFKSFRLTLRRE | 1.22
24 | TEEKHMVLKIMEQVLQKWVTGDEDVLDHLLDPDDRLHLLQGDKFVEYHGWEEANKAWNEMRITHIELHDIRAQGDKVTSDGTLDGHFNGRRTRVRVRVHLIIVNGRLKEVELQLH | 0.924
25 | TEELEELEKMLELVLRSFHTGDEHLLERLADPHAKYHFNGKNLHGWDKLSHLWRKAGVEKVESRIRDLELQGDYVNTDVEMRYNGRTEEVEFRVKKIDGRWIIKEIIIR | 0.809
26 | TEEQEESTRAYEEILQYIRTGDERQMTKYADPHVKLIFNGKEIHGREMFVELVKQYGIDHHHIHNWDFINGRVRMETHVRQGDKHDNAHIDMTKFDGKWIVRLFVFV | 0.856
27 | TEEQEIIQKFLDEMMEYLETGDEHSLRRLADPHARWDVNGREYHGRELFITFFSELTHKLGWTIQKIEIESKRRVGEYVSFRMTIHSEVDGRHKVIIYNFFVFKVNGKWFLKSFKEE | 1.47
28 | TEEQHEARHLFQLWVYSVITGNEHILHNLVDPHYLLDVGDYHVHGREDTLKVLLEARVEDFRVRDVRVYDGRLESDIEFTGHFNGRKINNKVEMTQEKIDGRWYLKRTKVT | 1.77
29 | TEEQTHLIRLIEQFVRDEITGNWKSVLKLLDPEVKVILKINGREIHLHGREEITRWVHEWVRHIRVFIEIHHSRAFDGVVEMDTRIIIDIDGVHLSQETRINIYVVDGVLKSMEIHVK | 1.65
30 | TEEREHDHRIFNLFLHWWMTGNEEEIHKYIDPNVRMRLDVNGVEIRDVGREMVMEMLRILYEFLGIDVSRIHSHDTQGDKVVLHGRNHVNGRDIEVHIEWKVINGKLKEVRIEIRER | 1.57
31 | TEERKEMEEAWDRFVHNIHTGDEHSLLKLVDPHVRVQIGDKEVHGWRYLLQLLRDIITKVKNLTVDLRIEDERMIGNYIELEVILVINFENRYHFIRYHVRHEKVDGKWHLKEISRD | 1.08
32 | TEESQIALEVLIKTARNKYTGDEDSVRHMADPNVQLHFDGQEIHGMDIIRKMIKHIRIDIEDSRSRDHHVQGDKIHDQTEVVLLIEYNGVHIRRQVRVHIHIWKINGRWILHSEIFE | 1.41
33 | TEEVHRYKNMLELFDHAVRTGNEDLLKILFDPNTRIEVGEYHNHGWEAIEFFLKRVDHEHIEDSKLTSHHVQGNYLESHGHMHATLHFNGKELRIHTHVRWHLDKFNGRWVIHSIIIN | 1.33
34 | TEEYRHVEEVIRMTFELLRTGNEQELEDRADPHAKSNVNGQEIHGRERFTRWFLEMITHLGVKHVRVRHYTVVNGRVIVHLEFDFDGVKIDYTVVIWKINGKWFIKISHEEHH | 2.09
35 | TEFEQEVERMIRMWRHLYETGDEKTLSHLVDPNVRVIVDGKHIHGREQVVNEIRRAHIVDDFEIRLEDTKYFEGRAVFTGIIREHGHVDGRTVHKSTKVEIDVVKVDGQWLIHRINFH | 1.54
36 | TEHDEDLDRWYDVLKHVLHTGDEEAKAKMVDPHVREDVNGQELHGRDDVRRLDRELGVNHFVLRVERLNIQGNKITMRGTLELTVGDKTERRHVIIHMIKIDGKWFTHHEQIR | 1.04
